Ki and Kd data for 3 substances are collected here from doi:10.1101/2023.10.27.564453.

As usually defined, the Ki is the equilibrium dissociation constant of an inhibitor or competing ligand from its target. A higher Ki goes with weaker binding. By Kd is commonly meant the constant that tells how readily two partners part at equilibrium. The low end stands for a tighter complex, the high end for a looser complex.

The test addresses MIK2 ectodomain (MIK2^LRR), residues 45-707, 6 x His-MBP tagged (Arabidopsis thaliana) (UniProt Q8VZG8). The test can be described thus: MST.
UniProt Q8VZG8, sequence (Q8VZG8 45-707): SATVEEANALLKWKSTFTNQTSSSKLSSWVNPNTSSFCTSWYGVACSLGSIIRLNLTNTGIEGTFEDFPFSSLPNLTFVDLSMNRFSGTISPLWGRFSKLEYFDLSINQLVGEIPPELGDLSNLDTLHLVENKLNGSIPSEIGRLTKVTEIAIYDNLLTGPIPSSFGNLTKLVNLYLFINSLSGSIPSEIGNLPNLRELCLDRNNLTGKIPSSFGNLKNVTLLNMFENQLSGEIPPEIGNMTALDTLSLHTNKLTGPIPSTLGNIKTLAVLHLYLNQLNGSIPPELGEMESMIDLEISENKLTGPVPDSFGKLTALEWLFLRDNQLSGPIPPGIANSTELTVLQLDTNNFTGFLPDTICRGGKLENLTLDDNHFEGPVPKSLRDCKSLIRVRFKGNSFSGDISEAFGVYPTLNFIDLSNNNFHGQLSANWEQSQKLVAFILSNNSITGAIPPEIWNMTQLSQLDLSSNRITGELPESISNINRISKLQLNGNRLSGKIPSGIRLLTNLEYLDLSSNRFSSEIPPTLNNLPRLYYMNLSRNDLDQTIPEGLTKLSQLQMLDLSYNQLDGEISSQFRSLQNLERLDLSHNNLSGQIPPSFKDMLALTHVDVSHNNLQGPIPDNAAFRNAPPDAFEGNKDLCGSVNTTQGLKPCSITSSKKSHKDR

On to “SCOOP12 peptide (unlabelled) (from UniProt B3H7I1 44-78)”, for which the Ki worked out at 40.1 nM.

In the case of “5-FAM-SCOOP12 peptide (N-terminally 5-FAM labelled) (from UniProt B3H7I1 44-78)”, the dissociation constant Kd worked out at 22 nM.

“5-FAM-SCOOP10 peptide (SCOOP10#2, N-terminally 5-FAM labelled) (from UniProt Q9LU08 30-98)” showed a Kd of 13.5 nM.
